The assay addresses CH505 transmitted founder gp120 (HIV-1 CH505 transmitted/founder, UniProt M4M3Q1, strain). Nature of the assay: SPR. Particulars: both partners purified.

B1: DH727.2 monoclonal antibody (IgG1) (antibody, V domains shown)
VH: QVQLVQSGAEVKKPGASVKLSCKASGNTFSIYGISWVRQAPGQGLEWMGGIIPPAGLTNYVQRFQGRVTITADTSTTTVYMELSSLTSEDTAVYYCAIRIGRGFDYWGQGVLVTVSS
VL: DIVMTQSPLSLPVTPGETASISCRSSQSLLDSEDGNTYLEWYLQKPGQSPQALIYEASNRASGVPDRFSGSGSDTDFTLKISRVEAEDVGIYYCMQTIEYPFTFGPGTKVDIK
notes: copies: 2 + 2
With B1, the binding result is on record as “binds”.

B2: DH753 monoclonal antibody (IgG1) (antibody, V domains shown)
VH: EVHLVESGGGLVQPGGSLRLSCEVSGLTFSNSWMSWVRQAPGKGLEWVGFIKTKADGGTAAYAESVKGRFTISRDDSKNTVFLQMKSLKTEDTAVYYCQGAVVISHEYIEIWGQGALVTVSS
VL: QSVLTQPPSASEAARKSVTISCSGGSSNIGDDSVSWYQQVPGTAPKLLIYYNDRRASGVSDRFSGSKSGTSASLAINGLQSEDEADYYCAAWDDSLSAYIFGSGTRLTVL
notes: copies: 2 + 2
B2: the binding result is “binds”.

These data come from publication PMC6602974 (Nature Communications, 2019).
